From patent US20100267638A1, “EXOSITE-DIRECTED THROMBIN INHIBITORS” (CLEVELAND STATE UNIVERSITY, priority 2003, published 2010)
No end group written: not given here. *: point of attachment. SO3 = O=S(=O)(O)*

Columns and labels:
prothrombinase = biological target: T1, prothrombinase (Homo sapiens, UniProt P00734); test: Assay measuring thrombin formation (prothrombinase inhibition by peptides, DAPA fluorescence); type: biochemical
T1 construct: purchased Haematologic Technologies Inc. (Essex Junction, Vt.)
Description: Assay measuring thrombin formation. The formation of thrombin was analyzed using the fluorescent thrombin inhibitor DAPA as described using a Perkin Elmer LS-50B Luminescence Spectrometer (Perkin-Elmer LLC, Norwalk Conn.) with λex=280 nm, λem=550 nm and a 500 nm long pass filter in the emission beam (Schott KV-500). […] In all cases peptides were preincubated with factor tor Va prior to the assay as described in the legend to the figures. The final concentration of factor tor Va in the mixture was 4 nM with factor Xa at 10 nM, prothrombin at 350 nM, DAPA at 700 nM, in the presence of PCPS vesicles (10 μM). The initial rate of thrombin formation (nM IIa·min^−1) was calculated as described during the initial 5-10 sec of the reaction. To verify if the peptides have any effect on the active-site of thrombin, control experiments were performed as follows: a given peptide (at 100 μM) was incubated in the assay buffer containing DAPA (700 nM); the base line was monitored for 30 sec; thrombin (350 nM) was then added to the mixture and the fluorescent intensity resulting from the complexation of DAPA with the active site of thrombin was monitored for 60 sec. The slope of the reaction measuring thrombin formation in the presence of a given peptide during the first 5 sec was calculated and compared to the slope of a reaction obtained in the absence of peptide. It is noteworthy that under the conditions employed the thrombin-DAPA interaction occurred fast and the calculated slope of the reaction was sensitive to all parameters used. […] All experiments were performed in triplicates or as indicated. The concentration of each peptide given in the figures and figure legends is their final concentration in the assay. […] In some cases the data were also analyzed and plotted using DeltaGraph (DeltaPoint, Monterey, Calif.).
Specifically, peptides were incubated with factor tor Va as described herein at a fixed concentration (100 μM). The percent of factor tor Va cofactor activity was calculated by comparing the activity of prothrombinase in the presence of a given peptide to the activity of prothrombinase determined in a control reaction in the absence of peptide and in the presence of factor Xa. […] The control peptide represents a pentadecapeptide from the middle portion of factor tor Va heavy chain (P15H) (SEQ ID NO. 22). […] All other peptides from region 680-709 had no significant effect on prothrombinase activity.
HC3 represents amino acid sequence 690-699 of factor tor Va heavy chain; HC4 contains the sequence 695-704 of human factor tor Va heavy chain; P15H represents amino acid sequence 337-351 from the middle portion of human factor tor Va heavy chain. […] The concentration of each peptide given on the x axis represents its final concentration in the prothrombinase mixture. […] Thus, both peptides show similar inhibitory potential.

intrinsic tenase = intrinsic tenase (Homo sapiens, UniProt P00451+P00740); test: Inhibition of intrinsic tenase; type: biochemical; settings: FIG. 11A
Chain of intrinsic tenase (P00740 227-461 limits assumed): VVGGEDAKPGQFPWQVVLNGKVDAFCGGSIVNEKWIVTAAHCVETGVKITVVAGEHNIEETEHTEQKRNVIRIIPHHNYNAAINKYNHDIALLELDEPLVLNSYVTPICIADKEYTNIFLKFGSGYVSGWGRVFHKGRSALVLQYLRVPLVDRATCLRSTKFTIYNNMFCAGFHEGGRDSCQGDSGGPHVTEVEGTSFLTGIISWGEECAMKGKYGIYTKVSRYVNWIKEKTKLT
Chain of intrinsic tenase (P00451 1709-2351 limits assumed): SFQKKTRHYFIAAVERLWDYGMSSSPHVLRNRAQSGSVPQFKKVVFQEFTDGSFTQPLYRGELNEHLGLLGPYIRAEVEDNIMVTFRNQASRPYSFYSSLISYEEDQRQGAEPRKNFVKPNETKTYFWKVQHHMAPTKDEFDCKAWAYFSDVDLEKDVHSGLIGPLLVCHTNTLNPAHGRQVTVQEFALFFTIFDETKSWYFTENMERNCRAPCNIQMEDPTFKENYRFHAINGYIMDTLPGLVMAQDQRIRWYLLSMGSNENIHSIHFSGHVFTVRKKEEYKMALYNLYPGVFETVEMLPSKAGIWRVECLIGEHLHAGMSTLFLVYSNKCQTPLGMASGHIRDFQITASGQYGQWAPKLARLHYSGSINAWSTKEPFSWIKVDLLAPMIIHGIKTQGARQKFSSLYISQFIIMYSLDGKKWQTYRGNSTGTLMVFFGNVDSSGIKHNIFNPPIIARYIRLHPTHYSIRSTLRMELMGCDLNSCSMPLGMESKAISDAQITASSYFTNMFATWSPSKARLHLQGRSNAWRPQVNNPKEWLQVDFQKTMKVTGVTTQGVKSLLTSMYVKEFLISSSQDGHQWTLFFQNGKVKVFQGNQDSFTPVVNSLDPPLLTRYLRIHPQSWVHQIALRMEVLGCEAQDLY
Source text: FIG. 11A illustrates inhibition of intrinsic tenase by the double sulfonated peptide DYDYQ (1, 2) (SEQ ID NO. 9). […] As is shown in FIG. 11A, as the concentration of DYDYQ (1, 2) is increased, the reduction in activity is dramatic.
FIG. 11B and its insert panel illustrate the effect of increasing concentration of the peptide DYDYQ (1, 2) (SEQ ID NO. 9) upon the reaction kinetics of intrinsic tenase. Specifically, this figure illustrates the kinetics of inhibition of intrinsic tenase in the presence of the double sulfonated peptide DYDYQ (1, 2). In FIG. 11B, the data are plotted as Vo (initial velocity in arbitrary units) as a function of increasing factor X concentration in the presence of increasing concentration of DYDYQ (1, 2). The concentrations of DYDYDQ (1, 2), in addition with factor VIIIa, are 10 nM (filled triangles), 25 nM (filled diamonds), and 50 nM (filled circles). Control curves of factors VIIIa and IXa (filled squares) and factor IXa (inverted triangles) are also noted. The insert panel of FIG. 11B is presented for greater clarity and details the region of factor X concentration up to 300 nM, and without the curve of 50 nM of DYDYQ (1, 2).

[1] = Clotting time as a function of peptide concentration (FIG. 12); settings: peptide 500 nM
Source text: FIG. 12 is a graph illustrating clotting time as a function of concentration of various peptides of interest as follows: DYDYQ (SEQ ID NO. 11) (filled squares); DYDYQ (1, 2) (or as designated in shorthand form, D5Q1,2) (SEQ ID NO. 9) (filled triangles); DYDYQ-1 (SEQ ID NO. 7) (filled inverted triangles); and DYDYQ-2 (SEQ ID NO. 8) (filled diamonds).

thrombin [2] = biological target: T2, thrombin (Homo sapiens, UniProt P00734); test: Inhibition of activation of factor VIII by thrombin (SDS-PAGE); type: biochemical; parameters: Factor Xa cleaves prothrombin to form thrombin; settings: FIG. 9A
Source text: Specifically, FIG. 9A illustrates the inhibition of activation of factor VIII by thrombin, the inhibition resulting from the double sulfonated peptide DYDYQ (1, 2) (SEQ ID NO. 9) binding to thrombin. FIG. 9B illustrates the inhibition of activation of factor V by thrombin, the inhibition resulting from the double sulfonated peptide DYDYQ (1, 2) (SEQ ID NO. 9) binding to thrombin. FIGS. 9A and 9B result from analysis by SDS-PAGE as previously described with regard to FIG. 4(A and B). […] The various fragments of each factor are noted on the right hand side of each figure.

thrombin [3] = biological target: T2, thrombin; test: Activation of plasma factor V by thrombin preincubated with peptide (SDS-PAGE, immunoblotting); type: biochemical; parameters: Factor Xa cleaves prothrombin to form thrombin; purchased Haematologic Technologies Inc. (Essex Junction, Vt.); settings: FIG. 9B
Description: Gel Electrophoresis and western blotting. Sodium dodecyl sulfate polyacrylamide gel electrophoresis (SDS-PAGE) analyses were performed using 4-12% gradient gels according to the method of Laemmli. In several experiments, proteins were transferred to polyvinylidene difluoride (PVDF) membranes according to the method described by Towbin et al. After transfer to nitrocellulose, factor V heavy and light chain(s) were detected using the appropriate monoclonal and polyclonal antibodies. Immunoreactive fragments were visualized with chemiluminescence.
Factor V (250 nM) was incubated with thrombin (1 nM). And FIG. 4B illustrates thrombin (1 nM) was preincubated with 100 μM peptide DYDYQ and the mixture was added to factor V (250 nM). […] Fragments were identified following staining with monoclonal antibody αHFV#17 that recognizes an epitope between amino acid residues 307-506 of factor V and chemiluminescence as described. Lane 1 in both panels depicts aliquots of the mixture withdrawn from the reaction before the addition of thrombin or thrombin/peptide mixture while lanes 2-7 show aliquots of the reaction mixture withdrawn at 30 sec, 1 min, 3 min, 5 min, 10 min, 15 min following the addition of thrombin alone or of thrombin/peptide mixture. The time of incubation is shown at the bottom of the figure. Position of the molecular weight markers is indicated at left.

DY(—SO3)DY(−SO3)Q (DY(SO3)DY(SO3)Q) [DYDYQ-1,2, double sulfonated peptide DYDYQ]
rank of inhibitory effect on prothrombinase among peptides (prothrombinase; FIG. 10A): greatest inhibitory effect | inhibition of prothrombinase activity with increasing peptide (prothrombinase; FIG. 10A, up to 8000 nM): significant inhibitory effects | type of inhibition of prothrombinase with respect to prothrombin (prothrombinase; kinetic analyses, increasing prothrombin and peptide): competitive inhibition mechanism | inhibition of intrinsic tenase (intrinsic tenase): dramatic reduction | clotting time [1]: relatively long clotting times | rank of clotting time among peptides [1]: longest clotting time | inhibition of activation of factor VIII by thrombin (thrombin [2]): potent inhibitor | inhibition of activation of factor V by thrombin (thrombin [3]): potent inhibitor
